Measured values as given in the DeepSol protein solubility set.

Assay: soluble on expression in E. coli; label from the status in PepcDB or PDB records

Sequence	soluble on expression in E. coli
MGSDKIHHHHHHMQHIIKTALQQTFNYKTNKSIYNILVGKKSHQTFFDACSQQQLSLYHSLPLLKYPSFELFLEKINEFNAEMEIMLHPRYTFESMGQTFQAIQLLVQTMSNTKQHVFHFVPISQNNKIQETVKIVYNYIKENQLQIDFENELHNLFKAITLKGPCYLHYYLQGYDEPMYTRQQVSLIEKLSQQQLFEYEMNNLVTMMFELESGEYTILSKIIMKPTLLNQTYITYTKLLEQFTMEDIAAQQQVKINTIEDHVLEILIKGYMSNYDDYVELEDQLQFLNFYQQHRGERLKFYKEQFDTLSYFQLKVLIVGFERGDLNVA	not soluble
MGSDKIHHHHHHMQIEFYRRKYGRGCRPHLSLCIEGQHYHVDTSPADYGMNLITHAHTDHYGQRNMDNSRAVASRESAAILEACTGKVFSGVTFEVGSRIRLSDTKIKTYPTYHMHGSAAFYFQDSDILITGDVKDYSKLPKCKILVTEATYGHPSHIFEEEVEKLLKVASSNKAVFGAYPIGKAQRVAEILSKDGFGFSAEEKIARICSAVGLKPSDGPLIASPRNLPLYGGGYILTAHKFYRWPRITLSDHLDYRGILEMIDHCEPEEVLFYHGKPSKRLLEHLKNEGIVCRTLNDLPVMK	not soluble
MGSDKIHHHHHHMQKLASGEQLMKVNGDTVATQGQLAKLLPLQHIDPQSTDIIDHGAKPRRQLLDWLMFHVEPEFYFAWQYYSRALKQRNTLLKTRRNLSLADLEPWNKMLSDYGEILHSQRLSIVEQWNVYFQNDLSQLLPDLEIELEYSPGFHTEQGLMQDLLNQHQKDIERRYTEYGPHRADLRLKTPFGHADDVLSRGQKKLLIIALKLSQIAMLHASNKETVVLLDDLTAELDLTAQQRLIERLSQLGSQVFMTTLDHASVKKHLHDLSISYQLFSVESGQVSLAAS	not soluble
MGSDKIHHHHHHMQLKQSIYFHSPIFLQNILTTIYGRVLYQERYGPVYQKRLQELKEKERFQTNAQAEQLARLNQFLLFCQTYSPYYQELFEQHRITLPLETLDELKQIPILSKEILRTRNADVHAKIRAPILGKTGGTTGKSIQVHYTKEDMQIRMAHLDYFKWTHGIERGMRRASFTGQTLAAESQKAPVYWRMNKAINQMLFTIKNINPQTAALYIEQLNRFNPESIDGLPSGMIEVARHAKKYNIPCTFRPKAIFPTAEMMTAAERQLIEEVFHAPIFDQYASSEGAPIVAECRYGKKHLHYEMGIIEVEEDGQILVTSFDTHGTPLVRYRVGDRMTLSEATCQCGHAGPVIASIDGRGRSFIQLKDGHRIFEGELAGIVRAFPNCIERVQYIQSDKEEIVMLYVPDERCFKEEHEKELYFVLKRLFGGQMEVLLRAVPEIPKEISGKTLLIKQLLLEKS	not soluble
MGSDKIHHHHHHMQLTVWTYEGPPHVGAMRVATGMEGLHYVLHAPQGDTYADLLFTMIERRDRRPPVTYTTFAARDLGKDTAELFKTAAQNAYDRFKPQAMIVGASCTGSLIQDDPGGLAKALALPIPVVAIDLPAYQRKENWGAAETFYQLVRAIAGPKAPPPGSKRPERPAGKRPSCNLLGPTALGFRHRDDIIELTTLLGKLGIDVNVTAPMGATPADLARLGEADFNVVMYPETASQAASWLHRMFHQPFTKIVPIGVSATREFIEEVAKLADVDPTAVLKSYSSRLPWYSHSVDSTYLTGKRVFIFGDATHVVAAARMASDEMGFKVVGLGTYSREFGREIREAAKLYDVEPLITDDYLEVEAKVAELHPELVLGTQMERHIAKRLGVPCAVISAPVHVQDFPARYAPQMGFEGANVIFDTWVHPLMMGLEEHLLTMFRDDFEFKDGATPSHLGVGHAPAPAPAVADSAAVEVLDATTATTTETTTAVWAADAEKELRKIPFFVRGKARRNTERFANENGVATITVETLYDAKAHFSR	not soluble
MGSDKIHHHHHHMQNGYYQATGGMVTQFNKLDVITNNLANINTSGYKRDDVVIADFKRIFKETQDELPIENHTRDASRFVNTTIDGIPQVSQEYTDFSLGSLKATNNPLDLAMTREDAFYLVQTKDGEVRLTKDGNFQLDDEGYLVNKQGYKVLSSDYFNNPQNAGIRIPNGAVQISVDKNGSIEVDGAQNARLFVAQVDDIRALQKDGDNVYKIDDLTRIRDLKNSNAIRQGFSQGSNVNPVTEMVGLIEANRMVEMYQKVMTAHMDDLNQEAINKLAAVK	not soluble
MGSDKIHHHHHHMQNTSYIALSRQAALWRQMEVVANNMANANTPAFKGEEMMFREFLVPTRSSERAIGGKLAFVQDVGVLRDTREGPLTKTDNPLDFALHGDGYFQIETEAGMRYARNGHFRLDQTGMLVNSQGYAVMDDRDQPIVFAPNETRVEVASDGTVSTENGRVARMKVVKFENDQLLRKAGDSLFETTQDPEAVQSPNVAQGMMEESNVQPVLEMTRMTQILREYQGVQKMLDAEHERQLKAIQTLGSSKTN	not soluble
MGSDKIHHHHHHMQPFSSYTVREVIKGGNSMELRSFGNTDIQVSPLGFGAGHIGSDDLSDQEASYILHQALDTGIRLFDTARGYGLSEKRLGQFLKQRRHDVVLSTKVGYDVPRTEDWTFQAVAGGIDQALLTMQTDFIDIVHLHSCSKEILAQDDVIEALERAKQAGKVRLIAYSGDREDLDYAITTGRFDSFQTSVNLYDQRALMDSVPLIHQQQKGIIAKRPIANAPWRFASRPVGQYVEPYWERAQQLDFPLEEASWLETALRFTVFEPGVTSAIIGTANPEHLVQNIRLLEKGALPAERVADLKRRFQEQDENWLQQT	not soluble
MGSDKIHHHHHHMQPSNSWVCLSALEKQVVAATASLDNRGLAYADGFFTTMGVINGQILWAEYHHQRLISHAKALQLDLDSWSLLSTLQVHAQQHRQGMLKLIITRAAQDIRGYGYTPSECGSACESWLKSLAMTVSTAEQLSLNDECSIPVQPVSTAVCLSSQIACLPPSIAGLKTLNRLDNVLASAELQGIKTRVLASNGEGDISEGLLRDMTGRWVEGTMSNVFYQLSDSRLVDSPSSEMINIPNNKSNTNYLTQGQWYTPSMAQSGVAGVMRQVIIDELSTTKYPVVVRSLQDKDLPQLQQLFFCNALRGIMPMASLTLLSGEMVGF	not soluble
MGSDKIHHHHHHMQRRVPLSPDAAHCSSCMLGHVCVPVGMPANEVEKLDELVKERVRVERGKSLYELDDPLDAVYGVRYGSLKTQLEDSSGQLQITGFHLPGEIVGLDGMIESKHVSSAVALEDSEVCVIRLPEIDRVSTQLPSLQQQFRRLMSREITRSHQMLATVGAMRSEQRLAAFLLNLSQRYAALGYSSTEFVLRMSREEIGNYLGLTLETVSRLFSRFGREGLIRINQREVRLIDLPGLKQLIGQESC	not soluble
MGSDKIHHHHHHMQTLKRGFAVAALLFSPLTMAQDINAQLTTWFSQRLAGFSDEVVVTLRSSPNLLPSCEQPAFSMTGSAKLWGNVNVVARCANEKRYLQVNVQATGNYVAVAAPIARGGKLTPANVTLKRGRLDQLPPRTVLDIRQIQDAVSLRDLAPGQPVQLTMIRQAWRVKAGQRVQVIANGEGFSVNAEGQAMNNAAVAQNARVRMTSGQIVSGTVDSDGNILINL	not soluble
MGSDKIHHHHHHMRDIHILHDLIKKQCPQIHQKRLNSLMVATESLLDGNQLSLTQLGRNITGSVAAKHNIKRIDRLLGNYHLAQDKITIYQWHARYLCGANPMPIILVDWSDVREQLRIMTLRASISVQGRSVTLYERTFLFEDYNAPRSHNAFLAELANVLPQGCCPLIVTDAGYRNTWFREVERYGWFWLGRVRGDVSFMHHGQTTWHSNKSLYSKANSTAKYIGNVQLARKSPLSCHLHLF	not soluble
MGSDKIHHHHHHMREAVMCRFVAYLGRPTLLENVLVRPKNSIIMQSLHARETKYRTNGDGFGLGWYSPEVSSDPALFTSVYPAWNDRNLLHLTAKIQSPCFFAHVRSASAGGVTNYNCHPFIYGDWMLMHNGEINDFIDVKRHIRHLLDDDIYHWVKGQTDSEHLFGLFLQLAKGRDITQLSVAADVLQETINKILEVIGQFGHSGPSYFNICLTNGKKIIATRYCSHEKKKPLTLHYLIGYVLSTQGLWIKEEGNPAYVVVSSERLNDLDEGWEDVPPQHMILIDENKNIQLRPLQTLG	not soluble
MGSDKIHHHHHHMRENSDVLANSGFRQSVEVQIKDKQSYKRLNMTLVGQQHPDYLILELSRQYCWQDILPMLATEKNVAIKTVSPKGEQVTGVVDILHITQYPQKLLFVSYPRNASVEILRSSPRVGVNCDARLQLQLKDKLGEPLTGKIVDISNKGIAFNYFGTSPVNIEDSRGLEAEVRVKTDDETILLQQLITRSIRSVGPQLWQLGLSYKEKPNNLQDLVSKLFLHSTPVRELLSDNDPGWDASDNTLQGESESVQFSTN	not soluble
MGSDKIHHHHHHMRFMFLHPRLSLEGDPLGLMQLSASLKQRGHIVGLTLLTEDYIEAIRSFQPDMLGVSLMSSDAVMMHQVLNKVRMVFPDLFIIVGGPHPTFDPSCLMVLPVNAICVGEGDEALVEALEQYGREGHVEGIRNVGTVTTPVTLRPLVSDLDDLPFIDRDIVYAKNHIVRDFPLKTFAASRGCHFKCTYCFNHAYNAMYAGLGHVVRRRSVDHLIAEMRDVIARYPTSYIKISDDSFTYRVDSWLEEFAEKYPRLIGLPFYCLLRADVVTRDMVRLLREAGCRSVCMSIEAGAETVRRDVLNRRVSNEKIIESFDLFNEAGIAIYTNSMLAMPRATLADDIATLDLNIRCRPTLGHFTIMAPFPGTRIHDMCEKDGILPERCGGDGDIPTSTGELSKLTTYTDEEKNIQKNIVLLGPLVIRFPVLRGVFLRCLAKLPSNNILFKCIYTVTKNLLFKRIVPVRMSPLLMLRIAIAQVKAARTQVG	not soluble
MGSDKIHHHHHHMRFPEFSGEWKKYFIRDIAEVTKGAGISKEQRSLFGTPCILYGELYTTYKSEVINDVQSKTDIDAKNLVRSKENDVIIPSSGETAIDISTARCVPYDDVLLGGDLNIIRLYQNDGRFLSYQLNGVRKLDIARVAQGSSVIHLYGESIKSLSVSLPALKEQQKIVSLLSLIDERIATQNKIIEEYKKLKNALAELFFAKSIEYTSIGEMCDVVMGQSPSSVAYNYTKNGLPLIQGNLDIFEGVTSPRMWTSDITKQCDIGDIILTVRAPVGDVAKSNMIACVGRGVCAIKVKESGCSEYVYQYLLYFKAKWGSIEQGSTFSAISRNDILNINIPVITKRLIVASHLLALFDSEISIEALNLNVYTKQKQYLLTKMFI	not soluble
MGSDKIHHHHHHMRGDMLKRELQAYAKEIGIDEFRVTTADPFLVMKQRLMEQQEKGYASGFEEPDLERRTTPALLLEDAVSIIAIAVAYPSKLKDAPRGKEGERRGIFGRSSWGLDYHQALKQRLTLLEEKIQELSPGARSRSMVDTGELVDRAVAERAGIGFSGKNCSIISEEHGSYLYLGELITDQYLPPDESVEELCGSCNKCLDACPTDALIEPGVIDAKRCISFITQTKTLIPEHFRYALGNRLYGCDTCQQVCPYNRKKNATQHSELQPDPEQVKPLLIPLLSLSNREFKSRFGSLSGAWRGKKPIQRNAVCALVHYQDRTALDALRLMAETDQREDMRALAIWAVGRIAGQEAEDYIQKRLLTDSAEDVQVEGNRLLEEWGNGHAI	not soluble
MGSDKIHHHHHHMRGEKNELLSWINNFVEVNNKAIDNSFEKFKSEPSNQYNLPFKNVSWYTLRKTLADNVEESKKARGCLYAVLDYNESELKELGLILNSNLHSIKKIANKIMQNAGIEFQFRFEAIMRLLLDKKNNLMLLNIPDLKRIKICLENFLSLRTTFRELVKQLLNDYNSNKESIKSENIKLGDYLNKAFSDIVLSMDKNPINLEKEIRNIIVI	not soluble
